This is an account of results in US20130196406A1, “NOVEL PROTEIN-POLYMER NANOCAPSULES” (University of Connecticut, priority 2012, published 2013).

Several values for one entry are separate records, joined by “and”; a condition that tells them apart may be missing. Equal values may be shown once.

This data set has as its system T1, COc1ccccc1O.
T1 construct: peroxidase-like activity with guaiacol/H2O2
Briefly: Peroxidase-like activity, Michaelis-Menten kinetics (guaiacol oxidation by H2O2, 470 nm), unmodified Hb. It counts as biochemical, bovine. The following applies: other: Hb, 1 μM Hb, 2.5 mM guaiacol. The protocol: FIG. 5 provides Lineweaver-Burk plots for the peroxidase-like activity of Hb-PAA conjugates. A) Peroxidase-like activity for the 1 μM of Hb-PAA synthesized at pH 6.0. B) Peroxidase-like activity for 1 μM Hb-PAA synthesized at pH 7.0. All experiments were done in the presence of 1 μM Hb, 2.5 mM guaiacol and 1 mM H2O2.
Polyacrylic acid (PAA) (8000 Da) was purchased from sigma chemical Co (St. Louis, Mo.). The PAA stock solution was made by mixing 1.32 gm of 45% (w/w) PAA in 3 ml of 20 mM Na2HPO4 buffer, pH 7.2, and was further used for synthesis. Met-hemoglobin (Hb, bovine) was purchased from Sigma. Protein solutions were prepared in the respective buffers used for synthesis and the concentrations determined from the Soret absorbance of Hb using extinction co-efficient 303,956 M^−1 cm^−1 at 407 nm.
Hb activity was monitored by the addition of guaiacol (substrate) and hydrogen peroxide (oxidant), and formation of the colored product has been monitored by its absorption at 470 nm as a function of time (FIG. 4). […]
Hb activity was followed by literature method, with minor modifications. Product absorbance at 470 nm was monitored as a function time of after the addition of H2O2 (1 mM) to Hb (5 μM) and o-methoxyphenol (2.5 mM). Initial rates and Michaelis-Menten parameters were calculated from the kinetic data by following standard protocols. […]

Chain of Met-hemoglobin (Hb, bovine), unmodified (Bos taurus) (chain, as listed by the source): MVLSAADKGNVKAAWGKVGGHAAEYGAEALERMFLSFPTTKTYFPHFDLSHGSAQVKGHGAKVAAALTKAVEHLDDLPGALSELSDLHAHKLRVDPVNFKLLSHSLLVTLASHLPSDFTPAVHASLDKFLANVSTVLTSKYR
Chain of Met-hemoglobin (Hb, bovine), unmodified (Bos taurus) (chain, as listed by the source): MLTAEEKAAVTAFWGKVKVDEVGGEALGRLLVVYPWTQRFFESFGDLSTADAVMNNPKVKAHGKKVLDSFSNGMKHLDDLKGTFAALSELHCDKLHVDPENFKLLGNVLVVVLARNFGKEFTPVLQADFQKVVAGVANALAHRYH

As a reminder, the Km is the concentration of substrate that gives half-maximal velocity. One may read the Vmax as the top rate of the reaction or transport when substrate is in excess. On to “Met-hemoglobin (Hb, bovine), unmodified (Bos taurus)”, for which the Km (1 mM H2O2) is 500 µM and 507 µM. In addition, the Vmax (1 mM H2O2, 120.0 °C) was 0.0026 mM/s and 0.0021 mM/s.
